According to PMC9907729 (Immunity, 2022):
Substitutions are numbered along the chain they refer to. In names and notes the source's numbering stands. Values belong to the binder of their own block, whether it stands above or below them.

Key:
[1] = biological target: T1, MBP-tagged FoxP3^RBR-forkhead (mouse, UniProt Q99JB6 284-423); experiment: pull-down
T1 sequence (looked up): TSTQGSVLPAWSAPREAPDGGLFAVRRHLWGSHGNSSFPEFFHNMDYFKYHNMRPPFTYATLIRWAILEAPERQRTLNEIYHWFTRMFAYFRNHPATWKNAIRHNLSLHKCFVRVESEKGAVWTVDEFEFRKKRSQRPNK

SEC-MALS = biological target: the molecule itself; experiment: SEC-MALS
SEC = biological target: the molecule itself; experiment: SEC

- binding result [1]: binds
B1: GST-tagged Runx1 (residue 371–451) (domain or fragment, mouse, UniProt Q03347 371-451, looked up)
chain: GSPSYHLYYGASAGSYQFSMVGGERSPPRILPPCTNASTGAALLNPSLPSQSDVVETEGSHSNSPTNMPPARLEEAVWRPY

B2: NusA-tagged FoxP3^ΔN (domain or fragment, mouse, UniProt Q99JB6 188-423, looked up)
chain: GSYPLLANGVCKWPGCEKVFEEPEEFLKHCQADHLLDEKGKAQCLLQREVVQSLEQQLELEKEKLGAMQAHLAGKMALAKAPSVASMDKSSCCIVATSTQGSVLPAWSAPREAPDGGLFAVRRHLWGSHGNSSFPEFFHNMDYFKYHNMRPPFTYATLIRWAILEAPERQRTLNEIYHWFTRMFAYFRNHPATWKNAIRHNLSLHKCFVRVESEKGAVWTVDEFEFRKKRSQRPNK
- stoichiometry N (SEC-MALS): 2

B3: NusA-tagged FoxP3^RBR-forkhead R337Q (domain or fragment, mouse, UniProt Q99JB6 284-423, looked up)
chain: T1 sequence (looked up) with R54Q
- stoichiometry N (SEC-MALS): 2

B4: Recombinant Y373V FoxP3^RBR-forkhead (domain or fragment, mouse, UniProt Q99JB6 284-423, looked up)
chain: T1 sequence (looked up) with Y90V
- stoichiometry N (SEC): 4
